Measurements reported in patent US20160146830A1 (published 2016).

Molecular target: Tetanus toxoid (TT) (UniProt P04958 2-1315)
Assay: competitive ELISA, IgG equilibrated with soluble TT, TT-coated plate

Chain of Tetanus toxoid (TT) (P04958 2-457 limits assumed, chain 1 of 2): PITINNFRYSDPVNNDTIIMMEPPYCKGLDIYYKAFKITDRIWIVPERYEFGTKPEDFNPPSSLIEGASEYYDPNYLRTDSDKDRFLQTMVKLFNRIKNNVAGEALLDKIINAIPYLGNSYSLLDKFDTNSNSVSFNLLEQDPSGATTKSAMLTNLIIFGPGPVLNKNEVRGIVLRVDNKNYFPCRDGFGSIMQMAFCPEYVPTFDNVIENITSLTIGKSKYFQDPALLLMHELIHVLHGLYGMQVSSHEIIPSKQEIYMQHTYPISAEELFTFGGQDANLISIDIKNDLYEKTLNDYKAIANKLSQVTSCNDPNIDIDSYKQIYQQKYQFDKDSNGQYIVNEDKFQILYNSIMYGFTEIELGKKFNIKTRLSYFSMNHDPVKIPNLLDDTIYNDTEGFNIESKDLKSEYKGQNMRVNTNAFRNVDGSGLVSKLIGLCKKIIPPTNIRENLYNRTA
Chain of Tetanus toxoid (TT) (P04958 458-1315 limits assumed, chain 2 of 2): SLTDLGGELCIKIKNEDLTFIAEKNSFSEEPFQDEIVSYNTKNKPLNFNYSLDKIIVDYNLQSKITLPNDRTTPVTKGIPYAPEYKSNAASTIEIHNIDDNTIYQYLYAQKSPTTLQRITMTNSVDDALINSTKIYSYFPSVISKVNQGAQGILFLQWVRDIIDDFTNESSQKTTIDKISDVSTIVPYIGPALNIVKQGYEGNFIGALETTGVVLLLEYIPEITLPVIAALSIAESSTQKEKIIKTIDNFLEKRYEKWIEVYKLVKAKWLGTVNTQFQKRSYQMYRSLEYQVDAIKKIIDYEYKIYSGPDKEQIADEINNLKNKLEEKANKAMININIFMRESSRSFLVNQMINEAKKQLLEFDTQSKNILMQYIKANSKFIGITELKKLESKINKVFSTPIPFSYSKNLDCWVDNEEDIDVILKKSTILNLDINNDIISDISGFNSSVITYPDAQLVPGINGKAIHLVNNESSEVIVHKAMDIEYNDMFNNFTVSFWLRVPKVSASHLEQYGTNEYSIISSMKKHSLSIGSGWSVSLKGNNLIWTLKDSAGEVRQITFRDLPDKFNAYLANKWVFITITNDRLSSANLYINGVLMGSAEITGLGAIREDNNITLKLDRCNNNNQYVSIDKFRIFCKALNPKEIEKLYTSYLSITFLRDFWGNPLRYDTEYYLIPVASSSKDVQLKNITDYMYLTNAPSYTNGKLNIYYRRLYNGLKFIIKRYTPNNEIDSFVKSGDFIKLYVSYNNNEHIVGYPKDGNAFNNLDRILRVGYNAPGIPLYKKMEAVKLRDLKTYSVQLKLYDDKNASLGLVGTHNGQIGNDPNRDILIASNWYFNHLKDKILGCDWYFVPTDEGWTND

Binder | Kd [nM]
TT-1 (antibody, V domains shown, also called VH-1/VL-1) VH: QVQLVESGGGLVQPGRSLRLSCVGSGFSFESYAMHWVRLAPGKGLEWVAGISWDSGAKGNADSVEGRFTISRDNAKKSVYLEMRSLRPEDTAFYYCAKAPIIGPKYYFYMDVWGKGTSVTVSS VL: EIVLTQSPGTLSLSPGERATLSCRASQRVKSSYLAWYQQKPGQAPRLLIYDASTRATGIPDRFSGSGSGTDFTLTISRLEPEDVAVYYCQQYGTSRGTFGQGTRLEIK | 1.6
TT-10 (antibody, V domains shown, also called VH-11/VL-11) VH: QVQLQESGGGLVQPGRSLRLSCVGSGFSFESYAMHWVRQAPGKGLEWVAGISWDSGAKGNADSVEGRFTISRDNAKKSLYLEMRSLRPEDTAFYYCAKAPIIGPKHYFYMDVWGKGTSVTVSS VL: EIVLTQSPGTLSLSPGERATLSCRASQRVKSSYLAWYQQKPGQAPRLLIYDASTRATGIPDRFSGSGSGTDFTLTISRLEPEDVAVYYCQQYGTSRGTFGQGTRLEIK | 0.9
TT-11 (antibody, V domains shown, also called VH-13/VL-13) VH: QVQLVESGAEVKKPGASVRVSCKASGYTFTNYGLAWVRQAPGQGLEWMGWITVYNGHTSYAQKFHDRVTMTTDTSTRTAYLEVRNLGSDDTAVYYCARKPRFYYDTSAWFEFWGQGTLVTVSS VL: DIVLTQSPETLSVSPGESATLSCRASQSVSTDLAWYQHKPGQAPRLLIWGASTRATGIPARFSGSGSGTEFTLTISSLQSEDFAICFCHQYNNWPTFGQGTKVEIK | 1.6
TT-8 (antibody, V domains shown, also called VH-9/VL-9) VH: QVQLVESGGGLVKPGGSLRLSCAASGFSFSHYSMNWIRQAPGKGLEWVASITSGSTNMVYADSLRARFSISRDNAKNSLYLQMDSLSAEDTAVYYCARKGMGHYFDFWGQGTPVTVSS VL: QTVVTQEPSSSVSLGGTVTLTCGLTSGPVTGAYYPSWHQQTPGQAPRTLIYNTYSLSSGVSDRFSGSILGNKAALTISGAQADDESDYYCVLYMGSGIWMFGGGTKLTVL | 2.8
TT-6 (antibody, V domains shown, also called VH-7/VL-7) VH: QVQLVESGSEVRKPGASVKVSCKASGYTFSRYGLTWVRQAPGQGLEWMGWISGYNSNTNYAPKFQGRVTMTTDTSTNTAYLELRSLRSNDTAVYYCARDYFHSGSQYFFDYWGQGSLVTVSS VL: DIRLTQSPSSLSASVGDRVTITCRSSQTISTYLNWYQQKPGEAPKILIYAASSLHTGVPSRFSGSGSGTDFTLTITSLQPEDFAIYHCQQSYSTPYTFGQGTKVEIK | 0.6
TT-5 (antibody, V domains shown, also called VH-5/VL-5) VH: QVQLQESGPGLVKPSETLSLTCTVSGGSINSYYWSWIRQSPGKGLEWIGYIYYTGINKYNPSLKSRVTISMDTSKRQVSLKVTSLTPADTAVYFCARLHPTCASTRCPENYGMDVWGQGTTVAVSS VL: DIRLTQSPSSLSASVGDRVTITCRSSQTISTYLNWYQQKPGEAPKILIYAASSLHTGVPSRFSGSGSGTDFTLTITSLQPEDFAIYHCQQSYSTPYTFGQGTKVEIK | 18.1
TT-9 (antibody, V domains shown, also called VH-10/VL-10) VH: QVQLQESGPGLVKPSGTLSLTCAVSGVPVYTGHWWTWVRQAPGKGLEWIGEIHHTVTTNYNPSLRSRVTISEDRSKNQISLTLQSVTAADTAVYFCARGEDCVGGSCYSADWGQGILVTVSS VL: EIVLTQSPSSLSASVGDRVTITCRASQNIHLFLNWYQQRPGRVPKVLIYATSTLQSGVPSRFSGSGSGTDFTLTISSVQPEDFATYYCQQSFSTPRTFGPGTKVEIK | 0.1
TT-2 (antibody, V domains shown, also called VH-2/VL-2) VH: QVQLVQSGGGVKQPGGSLRLSCTASGFTFEDFNMHWVRQAPGKGLEWISYISGDGDRTHYSDSVRGRFTISRDNSGNSLYLQMTSLRTEDAGFYYCGKSYDYIRENLDSWGQGTLVTVSS VL: QPGLTQPPSVSVAPGQTARITCGGNNIGSRHVHWYQQRPGQAPVLVVYDDDARPSGISGRFSGSNSGNTATLTISWVEAGDEADYYCQVSDSGREWGVFGSGTKVTVL | 22.6
TT-7 (antibody, V domains shown, also called VH-8/VL-8) VH: QVQLQESGPGLVRPSQTLSLTCTVSGDSISDGDSFWSWIRQPPGKGPEWIGYISSSGTTYYYPSLRGRLTVSLDASKNQFSLSLTSVTAADTAVYYCARARNYGFPHFFDFWGRGTLVTVSS VL: DIQMTQSPSTLSASVGDSVTITCRASQSITRWLAWYQQKPGKAPKLLIYKASLLESGVPSRFSGSGSGTEFTLTISSLQPDDFATYYCQQYNSYSPWTFGPGTKLEIK | 0.5
TT-4 (antibody, V domains shown, also called VH-4/VL-4) VH: QVTLKESGPALVKPTQTLTLTCTFSGFSLLSSGMCVSWIRQPPGKALEWLARIDWDEKKYYSPSLKTRLTISKDTSKDQVVLTMTNMDPLDTAMYSCARGVVPAGIPFDFWGQGIMVTVSS VL: ETTLTQSPSTLPASVGDRVTITCRASENINSWLAWYQQKPGKAPKILIYRASNLESGVPSRFSGSGSGTEFTLTISSLQPDDFATYYCQHFDKYFSWTFGHGTKVEIK | 3.2
TT-3 (antibody, V domains shown, also called VH-3/VL-3) VH: QVQLVQSGAEVKKPGASVRVSCKASGYTFTRYAMHWVRQAPGQRPEWMGWINVDNGNTEYSQKFQGRLTITRDTSASTAYMELSSLTSDDTAVYYCAKDRVRVVQAATTLDFWGQGTLVTVSS VL: EIVLTQSPGTLSLSPGERATLSCRASQTIPSKYLGWYQQKLGQAPRLLIYGASSRATGIPDRFSGSGSGTDFTLTISRLEPEDFAVYYCQQYGSLSAITFGQGTRLEIK | 3.7
